Earlier results, collected in paper PMC9880166.
Like-named read-outs stand apart in the source and are kept apart here.

Experiments:
[1] = molecular target: prolactin receptor (Homo sapiens) (UniProt P16471)
[2] = molecular target: prolactin receptor (Homo sapiens) (UniProt P16471); test: SPR

Sequence of prolactin (P01236 29-227): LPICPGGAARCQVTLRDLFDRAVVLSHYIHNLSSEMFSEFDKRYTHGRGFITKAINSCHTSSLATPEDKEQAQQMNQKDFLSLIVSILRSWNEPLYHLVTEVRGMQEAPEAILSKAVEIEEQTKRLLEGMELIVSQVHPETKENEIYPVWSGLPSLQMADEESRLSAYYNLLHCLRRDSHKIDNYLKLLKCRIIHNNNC
Sequence of UniProt P16471 (P16471 25-234): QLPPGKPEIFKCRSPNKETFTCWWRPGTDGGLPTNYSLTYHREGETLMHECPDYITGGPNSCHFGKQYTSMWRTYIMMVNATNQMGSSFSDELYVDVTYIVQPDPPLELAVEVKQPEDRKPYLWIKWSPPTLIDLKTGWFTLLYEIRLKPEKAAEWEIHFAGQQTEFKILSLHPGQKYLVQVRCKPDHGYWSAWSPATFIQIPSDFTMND

Q: Which Kd [1] does the source give for prolactin (from UniProt P01236) here?
A: 29.9 nM

Q: And the Kd [2]?
A: 23 nM
